From the nanobody polyreactivity screen of Harvey et al. (2022)

Assay: yeast display, Sf9 membrane polyspecificity reagent, FACS + sequencing; frameworks hold sequencing errors
Outline: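 A nanobody's polyreactivity label depends on the gate it was sorted from. Yeast display cells were stained with 10% biotinylated, detergent-solubilized Sf9 membrane reagent for 1 hour at 4 °C, enriched on streptavidin microbeads and sorted by FACS. The low and high (top ~1%) gates were set on anti-HA fluorescence for expression and streptavidin fluorescence for reagent binding.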

Sequence | polyreactivity (PSR sort gate)
QVQLVESGVGIVQAGGSLRLSCAASGSTLVYYDMGWYRQAPGKERELVATITGTDSTYYADSVKGRFTISRDNAKNTVYLQMNSLKPEDTADCAADRAGSRPDYDYWGQGTQVTVSS | low polyreactivity
QVQLVESGGGLVQAGGSLRLSCAASGFTFVYYAMGWYRQAPGKERELVAAISGRGGSTYYADSVKGRFTISRDNAKNTVYLQMNSLKPEDTAVYYCATTYSWYYVPYKPHIYYYWGQGTQVTVSS | low polyreactivity
QVQLVESGGGLVQAGGSLRLSCAASGLTFHVNAMGWYRQAPGKERELVAGITFSGGSTYYADSVKGRFTISRDNAKNTVYLLMNSLTPEDTAVYYCAADARFYAYYYWGQGTQVSVSS | low polyreactivity
QVQLVESGGGLVQAGGSLRLSCAASGITFNTDTMGWYRQAPGKEWELVAAITLSGAGTYYADSVKGRFTISRDNAKNTVYLQMNSLKPEDTAVYYCAAYLSENRWPYVRYDYWGQGTQVTVSS | high polyreactivity
QVQLVESGGVLVQAGGSLRLSCAASRSIFQGYVMGWYRQAPGKERELVAAISYSGDSTYYADSVKGRFTNSRDNAKNTVSLQINSVKPEDTAVYYCNAYRNRYGYRTSSRRYGYWGQGTQVTVSS | high polyreactivity
QVQLVESGGGLVQARGSLRLSCAASGRIFGLYAMGWYRQAPGKERELVASINSRGGSTNYADSVKGRFTISRDNAKNTVYLQMTSLKPEDTAVYYCNARFVYAYQRYYWGQGTQVTVSS | high polyreactivity
QVQLVESGGGLVQAGGSLRLSCAASGSIFVRNAMGWYRQAPGKERELVAAITYSGSRTYYADSVKGRFTISRDNAKNTVYLQMNSLKPEDTEVYYCAKVRVLVDKWSTFYEYYYWGQGTQVTVSS | low polyreactivity
QDQLVESGGGLVQAGGSLRLSGAASGSTFGGNAMGWYRQAPGKERELVAAISSSGGSTYYADSVKGRFTISRDNAKYSVYLQMNRLKPEDTAVYYCAAMYHWTYDYWGQGTQVTVSS | low polyreactivity
QVQLVESGGGLVQARGSLRLSCASSGSTFSRYAMGWYRQAPGKERELVAGISWSGGNTYYADSVKGRFTISRDNAKNTVYLQMNSLKPEDTAVYYCAADFLDYWGVYGWAEYEYWGQGTQVTVSS | low polyreactivity
QVQLVESGGGLVQAGGSLRLSSAASGLIFVFYAMGWYRQAPGKERELVAAISTSGDRTYYADSVKGRFTISRDNAKNTVYLQMNSLKPEDTAVYYCAAGRRKVPYSREYYYWGQGTQVTVSS | high polyreactivity
QVQLVESGGGLVQAGGSLRLSCAASGNIFFGYAMGWYRQAPGKEREFVASITKIGGSTYYADSVQGRFTISRDNAKNTVYLQMNSLKPEHTAVYYCAKTILYDCDYWGQGTQVTVSS | low polyreactivity
PVQLVESGGGLVQAGGSLRLSCAACGSIIAGYAMGWYRQAPGKERELVAAISWSGGGTYYADSVKGRFTISRDNAKNTVYLQMNSLKPEDTAVYYCNAYGYRHRGNGYWGQGTQVTVSS | high polyreactivity
QVQLVESGGGLVQAGGSLRLSCAASGSPFLTNAMGWDRQAPGKERELVAAITWSTGSTYYADSVKGRFTISRDNAKNTVYLQMNSLKPEDTAVYYCNARSEVSYWWGGYWGEGTQVTVSS | low polyreactivity
QVQLVESGGGLVQAGGSLRLSCAASGSIFIYNVMGWYRQAPGKERELVATIRGSGGSTYYADSVKGRFTISRDNAQNTVYLQMNSLKPEDTAVYYCARRDYPVQWGRAYNYWGQGTQVTVSS | high polyreactivity
QVQLVESGGGLVQAGGSLRLSCAASGSIFSGNAMGWYRPAPGKGRELVAGSSRRGGRTYYADSVKGRFTISRDNAKNTVYIPMNSLKPEDPAVYYCNKDVFGDTREYDYWGQGTQVTVSS | high polyreactivity
QVQLVESAGDLVQAGRTLRFSCAPSGSIFKPNAMGWYRQAPGKERELVDDISRSGTSTYYADSVKGRFTISRDIAKNTVYLQMNSLKPEDTAVFNCATRYSGDYGYWGQGTQVTVSS | high polyreactivity
QVQLVESGGALVQAGRSLRLSCAASGRTFWVYAMGWYRQAPGKERELVAAIRWSAGTTYYADSVKGRFTISRDNAKNTVYLQMNSLKPEDTAVYYCAKRRYTAISYGYWGQGTKVTVSS | high polyreactivity
